The text below walks through data of IntAct's records for PubMed 31515488.

The chains are these.
B1: Rho guanine nucleotide exchange factor 39 (Homo sapiens), Q8N4T4 (parent)
chain: MELSCPGSRCPVQEQRARWERKRACTARELLETERRYQEQLGLVATYFLGILKAKGTLRPPERQALFGSWELIYGASQELLPYLEGGCWGQGLEGFCRHLELYNQFAANSERSQTTLQEQLKKNKGFRRFVRLQEGRPEFGGLQLQDLLPLPLQRLQQYENLVVALAENTGPNSPDHQQLTRAARLISETAQRVHTIGQKQKNDQHLRRVQALLSGRQAKGLTSGRWFLRQGWLLVVPPHGEPRPRMFFLFTDVLLMAKPRPPLHLLRSGTFACKALYPMAQCHLSRVFGHSGGPCGGLLSLSFPHEKLLLMSTDQEELSRWYHSLTWAISSQKN
partner: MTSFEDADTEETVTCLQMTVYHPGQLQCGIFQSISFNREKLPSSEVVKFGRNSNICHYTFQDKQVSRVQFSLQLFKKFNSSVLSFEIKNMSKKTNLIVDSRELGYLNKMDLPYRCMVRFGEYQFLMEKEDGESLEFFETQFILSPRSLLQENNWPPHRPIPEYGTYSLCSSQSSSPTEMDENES
B2: Adenylate kinase 8 (Homo sapiens), Q96MA6 (parent)
chain: MDATIAPHRIPPEMPQYGEENHIFELMQNMLEQLLIHQPEDPIPFMIQHLHRDNDNVPRIVILGPPASGKTTIAMWLCKHLNSSLLTLENLILNEFSYTATEARRLYLQRKTVPSALLVQLIQERLAEEDCIKQGWILDGIPETREQALRIQTLGITPRHVIVLSAPDTVLIERNLGKRIDPQTGEIYHTTFDWPPESEIQNRLMVPEDISELETAQKLLEYHRNIVRVIPSYPKILKVISADQPCVDVFYQALTYVQSNHRTNAPFTPRVLLLGPVGSGKSLQAALLAQKYRLVNVCCGQLLKEAVADRTTFGELIQPFFEKEMAVPDSLLMKVLSQRLDQQDCIQKGWVLHGVPRDLDQAHLLNRLGYNPNRVFFLNVPFDSIMERLTLRRIDPVTGERYHLMYKPPPTMEIQARLLQNPKDAEEQVKLKMDLFYRNSADLEQLYGSAITLNGDQDPYTVFEYIESGIINPLPKKIP
B3: Notch homolog 2 N-terminal-like protein A (Homo sapiens), Q7Z3S9 (parent)
chain: MCVTYHNGTGYCKCPEGFLGEYCQHRDPCEKNRCQNGGTCVAQAMLGKATCRCASGFTGEDCQYSTSHPCFVSRPCLNGGTCHMLSRDTYECTCQVGFTGKECQWTDACLSHPCANGSTCTTVANQFSCKCLTGFTGQKCETDVNECDIPGHCQHGGTCLNLPGSYQCQCLQGFTGQYCDSLYVPCAPSPCVNGGTCRQTGDFTFECNCLPETVRRGTELWERDREVWNGKEHDEN
partner: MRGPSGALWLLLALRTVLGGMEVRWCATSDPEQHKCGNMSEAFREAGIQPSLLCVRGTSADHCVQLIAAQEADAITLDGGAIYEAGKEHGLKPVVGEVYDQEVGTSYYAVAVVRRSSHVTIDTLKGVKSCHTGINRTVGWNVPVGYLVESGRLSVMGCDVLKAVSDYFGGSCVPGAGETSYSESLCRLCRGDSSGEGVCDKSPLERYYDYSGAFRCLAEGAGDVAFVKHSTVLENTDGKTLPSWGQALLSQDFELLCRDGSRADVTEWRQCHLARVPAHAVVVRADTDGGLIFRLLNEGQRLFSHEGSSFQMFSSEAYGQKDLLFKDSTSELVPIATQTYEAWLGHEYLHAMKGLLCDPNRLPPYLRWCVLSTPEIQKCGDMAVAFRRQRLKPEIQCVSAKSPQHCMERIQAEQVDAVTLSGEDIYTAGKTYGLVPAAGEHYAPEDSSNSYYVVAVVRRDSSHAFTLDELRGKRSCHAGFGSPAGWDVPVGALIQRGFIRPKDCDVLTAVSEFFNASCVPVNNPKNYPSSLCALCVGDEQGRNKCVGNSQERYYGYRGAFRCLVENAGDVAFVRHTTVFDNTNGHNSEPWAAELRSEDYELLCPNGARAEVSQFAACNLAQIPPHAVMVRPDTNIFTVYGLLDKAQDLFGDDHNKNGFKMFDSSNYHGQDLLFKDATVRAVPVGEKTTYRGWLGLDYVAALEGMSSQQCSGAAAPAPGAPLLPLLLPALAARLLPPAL
B4: Sperm surface protein Sp17 (Homo sapiens), Q15506 (parent)
chain: MSIPFSNTHYRIPQGFGNLLEGLTREILREQPDNIPAFAAAYFESLLEKREKTNFDPAEWGSKVEDRFYNNHAFEEQEPPEKSDPKQEESQISGKEEETSVTILDSSEEDKEKEEVAAVKIQAAFRGHIAREEAKKMKTNSLQNEEKEENK
B5: Cyclic AMP-dependent transcription factor ATF-4 (Homo sapiens), P18848 (parent)
chain: MTEMSFLSSEVLVGDLMSPFDQSGLGAEESLGLLDDYLEVAKHFKPHGFSSDKAKAGSSEWLAVDGLVSPSNNSKEDAFSGTDWMLEKMDLKEFDLDALLGIDDLETMPDDLLTTLDDTCDLFAPLVQETNKQPPQTVNPIGHLPESLTKPDQVAPFTFLQPLPLSPGVLSSTPDHSFSLELGSEVDITEGDRKPDYTAYVAMIPQCIKEEDTPSDNDSGICMSPESYLGSPQHSPSTRGSPNRSLPSPGVLCGSARPKPYDPPGEKMVAAKVKGEKLDKKLKKMEQNKTAATRYRQKKRAEQEALTGECKELEKKNEALKERADSLAKEIQYLKDLIEEVRKARGKKRVP

The variants in the first experiment derive from B1. The following applies: with tifa_human TIFA.
As to R230C, the “effect of a mutation on the interaction” value is “with no effect”.

A further experiment covers variants of B2. The following applies: with mcm7_human MCM7, P33993.
mcm7_human MCM7, P33993, sequence (P33993 whole entry): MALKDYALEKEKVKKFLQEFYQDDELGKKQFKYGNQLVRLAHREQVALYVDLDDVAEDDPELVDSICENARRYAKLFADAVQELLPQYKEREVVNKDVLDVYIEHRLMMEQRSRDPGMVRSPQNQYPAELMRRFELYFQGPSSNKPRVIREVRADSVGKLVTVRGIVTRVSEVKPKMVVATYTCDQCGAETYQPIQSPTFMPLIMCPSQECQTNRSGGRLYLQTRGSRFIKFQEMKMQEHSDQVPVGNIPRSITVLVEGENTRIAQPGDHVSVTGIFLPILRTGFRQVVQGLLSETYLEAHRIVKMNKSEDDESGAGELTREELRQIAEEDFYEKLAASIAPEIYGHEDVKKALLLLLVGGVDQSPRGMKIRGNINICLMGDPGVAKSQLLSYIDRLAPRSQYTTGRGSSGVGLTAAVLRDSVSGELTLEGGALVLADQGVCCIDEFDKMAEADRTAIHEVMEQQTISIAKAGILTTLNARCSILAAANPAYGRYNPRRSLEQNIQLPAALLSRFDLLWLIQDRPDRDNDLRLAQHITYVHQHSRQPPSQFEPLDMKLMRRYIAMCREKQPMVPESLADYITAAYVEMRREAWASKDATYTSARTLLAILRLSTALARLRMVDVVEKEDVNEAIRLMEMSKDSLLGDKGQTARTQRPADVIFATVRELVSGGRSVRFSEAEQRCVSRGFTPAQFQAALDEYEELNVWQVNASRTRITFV
V227I: the “effect of a mutation on the interaction” value is “with no effect”. On to T169K, for which the “effect of a mutation on the interaction” value was “with no effect”. In the case of R339C, the “effect of a mutation on the interaction” value is on record as “disrupting interaction strength”.

In another experiment the parent is B3. The following applies: with trfm_human MELTF.
For A115T, the “effect of a mutation on the interaction” value is recorded as “with no effect”. Same read-out and setting: then R74Q, with “with no effect”.

In the next experiment the parent is B4. The following applies: with aka7g_human AKAP7, Q9P0M2.
aka7g_human AKAP7, Q9P0M2, sequence (Q9P0M2 whole entry): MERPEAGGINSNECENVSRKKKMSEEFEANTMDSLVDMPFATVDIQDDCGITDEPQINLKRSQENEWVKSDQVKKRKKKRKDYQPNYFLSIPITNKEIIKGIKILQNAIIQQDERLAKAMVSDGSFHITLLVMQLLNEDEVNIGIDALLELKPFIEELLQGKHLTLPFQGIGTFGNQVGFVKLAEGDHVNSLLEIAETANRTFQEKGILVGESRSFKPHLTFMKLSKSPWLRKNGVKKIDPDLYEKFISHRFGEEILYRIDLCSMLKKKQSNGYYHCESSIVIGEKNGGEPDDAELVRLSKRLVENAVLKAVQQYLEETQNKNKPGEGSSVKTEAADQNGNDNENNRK
R126Q: the “effect of a mutation on the interaction” value was “disrupting interaction strength”.

Another experiment covers variants of B5. The following applies: with ldoc1_human LDOC1, O95751.
ldoc1_human LDOC1, O95751, sequence (O95751 whole entry): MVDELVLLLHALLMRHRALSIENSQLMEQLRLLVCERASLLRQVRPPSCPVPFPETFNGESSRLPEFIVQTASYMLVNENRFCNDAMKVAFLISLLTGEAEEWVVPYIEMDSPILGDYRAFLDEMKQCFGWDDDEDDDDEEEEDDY
P258A: the “effect of a mutation on the interaction” value is listed as “with no effect”. The same measure, in the same setting: to T137S belongs “with no effect”.

Variants of B5 are the subject of another experiment. The following applies: with cc106_human CCDC106, Q9BWC9.
cc106_human CCDC106, Q9BWC9, sequence (Q9BWC9 whole entry): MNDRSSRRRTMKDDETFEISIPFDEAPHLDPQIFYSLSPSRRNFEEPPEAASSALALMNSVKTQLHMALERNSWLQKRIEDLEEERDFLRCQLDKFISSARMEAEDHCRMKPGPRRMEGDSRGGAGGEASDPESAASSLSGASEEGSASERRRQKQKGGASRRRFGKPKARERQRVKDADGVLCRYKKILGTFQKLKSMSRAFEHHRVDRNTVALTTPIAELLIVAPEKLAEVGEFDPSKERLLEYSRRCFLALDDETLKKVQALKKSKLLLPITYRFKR
As to P258A, the “effect of a mutation on the interaction” value is recorded as “with no effect”.

In another experiment the parent is B5. The following applies: with fbw1a_human BTRC.
With P258A, the “effect of a mutation on the interaction” value is “with no effect”. Still for that read-out and setting: then T137S, with “with no effect”.

In the next experiment the parent is B5. The following applies: with tthy_human TTR.
Turning to T137S, the “effect of a mutation on the interaction” value is recorded as “with no effect”.
